The values below come from the supplement of paper PMC12042874.

± gives the uncertainty stated by the source.

The nature of the series: amyloid nucleation score (Sup35N fusion, yeast selection) (log enrichment); library NNK1; higher = more nucleation; inactive = no reads after selection. In a few lines:
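Growth for 7 days at 30°C on medium lacking adenine and uracil followed a 24-hour induction with 100 μM copper sulfate of psi-negative yeast expressing peptides of 20 random codons fused to Sup35N. Input and output plasmid inserts were sequenced with Illumina, and sequences with under 100 input reads were excluded. Nucleation score is the DiMSum log enrichment of output over input reads, centred on the mode score of non-aggregating sequences.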
For the substance SNTICQVGASREEPSCGTQW, the amyloid nucleation score turned out to be 1.14 ± 0.97.
For the substance SNVMWFYSWMWVRVTRRTCL, the amyloid nucleation score stood at 1.71 ± 0.49.
The result for SNWTPCQSESP reads -0.311 ± 0.55; that for SNWYRPTDAARLSLSYSRGG, -0.883 ± 1.1.
Substance SPFDKIVAHGSRLML gave an amyloid nucleation score of -0.274 ± 0.64.
Consider SPLFLVWLTCYKQDPFILVW, for which the amyloid nucleation score result is “inactive”.
Substance SPNCM gave an amyloid nucleation score of -0.358 ± 1.4.
Turning to SPSYQRCLQMLEKIWKDLNH, the amyloid nucleation score was 0.497 ± 0.31.
In the case of SPTVERSTGIR, the amyloid nucleation score is -0.089 ± 0.49.
To SPVESQNSNNRLTIMDLIMR belongs 0.574 ± 0.97; to SPVLIDVRGM, -0.413 ± 0.5.
On to SQCELWGCSCTPYNRMFSGN, for which the amyloid nucleation score entry was “inactive”.
SQIYTFVDLFLSS: the amyloid nucleation score is 1.26 ± 0.68.
Regarding SQMLELVFK, the amyloid nucleation score worked out at 0.818 ± 0.75.
SQVGYGSRDLEFTWWCGGNG gave an amyloid nucleation score of -0.278 ± 0.58.
On to SRATSYKFSTGRCCWTGTVK, for which the amyloid nucleation score was determined as 0.072 ± 0.91.
In the case of SRCLMRMTAPQVQEGACAVC, the amyloid nucleation score was -0.268 ± 0.38.
SRDRNLVGLKLHVTVNKDVF returned an amyloid nucleation score of -1.41 ± 2.4.
For SRFWKRVHAYTAVISEMYSA, the amyloid nucleation score is -0.132 ± 0.52.
SRIFCTWPVSVIYNRADSAQ showed an amyloid nucleation score of 0.838 ± 0.56.
With SRKCGDVCSKDGRPVCPGTE, the amyloid nucleation score was found to be 1.67 ± 0.15.
Regarding SRLATQTRLKMAGSISLFRS, the amyloid nucleation score is -0.208 ± 1.2.
The result for SRLSQDPRTSSAIMSWLRYS reads 0.886 ± 1.1.
As to SRNLCSQSWIRTATV, the amyloid nucleation score was 0.585 ± 0.56.
The result for SRNLLPSDTSHQVMYPVSTK reads 0.568 ± 0.28.
In turn, SRPNDMFTALVYTCYLPNK came in with an amyloid nucleation score of -0.539 ± 0.6.
For SRQRSYRDWVATFTF, the amyloid nucleation score is -0.339 ± 0.52.
Consider SRRNYWVFGGHMFND, for which the amyloid nucleation score was -0.134 ± 1.7.
To SRRVQLYVLGFRGIKSGTFL belongs -0.066 ± 0.62; to SRSIRSYDPWMVCMSMWLSD, 1.13 ± 0.9.
Regarding SRSRRANYGLCDIRYYNSFE, the amyloid nucleation score is 0.862 ± 0.43.
On to SRTGRH, for which the amyloid nucleation score amounted to 0.972 ± 0.93.
With SRTHRDGTCYHSGTVKVHLP, the amyloid nucleation score is -1.64 ± 2.7.
Take SRTICGSEILTSKKTRFHAS: the amyloid nucleation score is -0.702 ± 1.7.
The result for SRTVFGCEDIRERRWVFWEI reads 0.647 ± 0.69.
As for SRTYFESRDFEEYRAMRPSL, the amyloid nucleation score entry is “inactive”.
Consider SRTYPVDMFPMSLKLSINVL, for which the amyloid nucleation score is -0.125 ± 0.79.
Take SRVQYLILDIMVTRYGASTS: the amyloid nucleation score is -0.262 ± 0.53.
SRYYLSRPVLRYG yielded an amyloid nucleation score of 0.546 ± 0.42.
The substance SSCKCRCGFD showed an amyloid nucleation score of -0.699 ± 0.67.
SSCYDRVLYAPDRRR returned an amyloid nucleation score of 1.23 ± 0.45.
The result for SSGAYSLSKWYQYRMFSVVL reads -0.771 ± 0.66.
For SSGFYLWCALYRSRGHCNDY, the amyloid nucleation score was 1.6 ± 0.18.
Take SSGVFTSI: the amyloid nucleation score is -0.042 ± 0.66.
Turning to SSITVITVATQVEYNTVHDF, the amyloid nucleation score turned out to be 1.37 ± 0.45.
SSKLDVCEFADDGQLVFGVG: the amyloid nucleation score is -0.394 ± 0.61.
SSLASMASVDRKNHRGSGEG: the amyloid nucleation score stood at 1.77 ± 0.11.
The result for SSLGNEFIFDSFGNK reads -0.772 ± 0.73.
SSLLFEPATASFILQD yielded an amyloid nucleation score of -0.894 ± 0.68.
The substance SSLPRPPMPKWSDV displayed an amyloid nucleation score of 0.125 ± 0.88.
SSMLSISVFEWITFRWR gave an amyloid nucleation score of 0.181 ± 0.58.
SSQRGGNPGIMFNWEIVLRG had an amyloid nucleation score of 2.59 ± 0.14.
Substance SSSFTSNSFLLLLWSYKDMF showed an amyloid nucleation score of 1.16 ± 0.21.
SSVILSDCSCFMVHQCWYLC yielded an amyloid nucleation score of -2.13 ± 2.7.
The substance SSWSGMFTCSYTMMLWLRRL had an amyloid nucleation score of -0.692 ± 0.75.
To STDLSYVSCAYVSTFLPNFR belongs 2.2 ± 0.21.
